{"source": "patent US20240092930A1", "about": "(MABWELL SHANGHAI BIOSCIENCE, published 2024)", "binders": {"B1": {"name": "chimeric antibody ch4-3 (antibody, human IgG1, V domains shown)", "VH": "QVQLQQSGPELVKPGASVKMSCKASGFTFTDYVIGWVKQRTGQGLEWIGEIYLGSGTIYYTEKFKGKATLTADTSSNTAYMQLSSLTSEDSAVYFCARGSIFPFDYWGQGTTLTVSS", "VL": "QIVLTQSPAIMSASPGEKVTMTCSASSSVSYMYWYQQKPGSSPRLLIYDTSTLASGVPVRFSGSGSGTSYSLTISRMEAEDAATYYCQQWSSYPYTFGGGTKLEIK"}, "B2": {"name": "ch4-3-SN38 (antibody, V domains shown)", "VH": "B1 VH", "VL": "B1 VL", "modifications": "CL2A-SN-38 conjugated to the DTT-reduced antibody; 7.5 SN38 per antibody; sites not stated", "notes": "also called ch4-3 labeled with SN38"}, "B3": {"name": "Sacituzumab-SN38 (antibody, human IgG1, kappa, V domains shown)", "VH": "QVQLQQSGSELKKPGASVKVSCKASGYTFTNYGMNWVKQAPGQGLKWMGWINTYTGEPTYTDDFKGRFAFSLDTSVSTAYLQISSLKADDTAVYFCARGGFGSSYWYFDVWGQGSLVTVSS", "VL": "DIQLTQSPSSLSASVGDRVSITCKASQDVSIAVAWYQQKPGKAPKLLIYSASYRYTGVPDRFSGSGSGTDFTLTISSLQPEDFAVYYCQQHYITPLTFGAGTKVEIKR", "modifications": "CL2A-SN-38 conjugated to the DTT-reduced antibody; 7.5 SN38 per antibody; sites not stated", "notes": "also called Sacituzumab labeled with SN38"}, "B4": {"name": "ch11-4-SN38 (antibody, V domains shown)", "VH": "QVQLQQPGAELVRPGASVNLSCKASGYTFTSYWINWVKQRPGQGLEWIGNIYPSNSYTNYNQKFKDTATLTVDKSSSTAYMQLSSPTSEDSAVYFCSSYRSDGFAYWGQGTLVTVSA", "VL": "DILLTQSPAILSVSPGEKVSFSCRASQNIGTSIHWYQQRTNGSPRLLIEFASESISGIPSRFSGSGSGTDFTLTINSVESEDIADYYCQQSNSWPFTFGGGTKLEIK", "modifications": "CL2A-SN-38 conjugated to the DTT-reduced antibody; 7.5 SN38 per antibody; sites not stated", "notes": "also called ch11-4 labeled with SN38"}, "B5": {"name": "h23-12-SN38 (antibody, human IgG1, kappa, V domains shown)", "VH": "QVQLVQSGAEVKKPGASVKVSCKASGYTFTSYWMHWVRQAPGQGLEWMGEITPSDNYGSYNQKFKGRVTITRDTSTSTAYMELSSLRSEDTAVYYCARGHGNYVSFDYWGQGTLVTVSS", "VL": "DIQMTQSPSSLSASVGDRVTITCRASQDISNYLNWYQQKPGKAPKLLIYYTSRLESGVPSRFSGSGSGTDFTLTISSLQPEDFATYFCQQGYTLPPYTFGQGTKLEIKR", "modifications": "CL2A-SN-38 conjugated to the DTT-reduced antibody; 7.5 SN38 per antibody; sites not stated", "notes": "also called h23-12 labeled with SN38"}}, "key": {"[1]": {"target": "T1, recombinant human Trop-2-his protein (ACCESSION NO.: NP_002344.2, AA 1-274) (human, UniProt P09758 27-274)", "T1 construct": "range 27-274; also called recombinant human Trop-2 protein; recombinant human Trop-2 extracellular domain; not shown: his tag", "T1 sequence (looked up)": "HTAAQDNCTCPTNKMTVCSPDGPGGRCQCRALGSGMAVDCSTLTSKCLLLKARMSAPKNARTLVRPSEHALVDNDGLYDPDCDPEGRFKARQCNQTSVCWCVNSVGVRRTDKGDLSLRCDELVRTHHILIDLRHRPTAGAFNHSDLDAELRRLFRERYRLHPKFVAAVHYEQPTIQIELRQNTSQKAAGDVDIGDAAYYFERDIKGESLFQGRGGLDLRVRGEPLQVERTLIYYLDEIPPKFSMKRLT", "assay": "ELISA, coated Trop-2-his 0.2 µg/ml", "method": "Plates were coated with recombinant human Trop-2-his protein (ACCESSION NO.: NP_002344.2, AA 1-274) at a concentration of 0.2 μg/ml overnight at 4° C. and then blocked with 5% BSA for 60 min in a constant temperature incubator at 37° C. Chimeric antibodies ch3-11, ch4-3, ch17-1, ch11-4, and ch23-12 and control antibody Sacituzumab (serial dilutions of 8 concentrations in total obtained through 3-fold serially diluting a solution with an initial concentration of 2 μg/ml) were added into the plates which were then incubated in a constant temperature incubator at 37° C. for 60 min. The plates were washed with PBST 4 times, and 1:5000 dilution of HRP-anti-human Fc (Cat.: 109-035-098, Jackson ImmunoResearch) was added into the plates for reaction for 45 min. TMB (Cat.: ME142, GalaxyBio, Beijing) substrate was added for color development for 15 min, and then 2M HCl was added to stop reaction. Absorbances at 450 nm and at 630 nm (as reference wavelength) were read, and A450 nm-630 nm values of the wells in the plates were recorded."}, "[2]": {"target": "T1, recombinant human Trop-2-his protein …", "assay": "BLI, antibody on AHC sensor, Trop-2-his 60 nM", "method": "5-6 days after cell transfection, culture supernatants were purified through ProA affinity chromatography column to obtain different humanized antibodies. Affinities of the obtained antibodies were determined by an assay including capturing Fc fragments of the antibodies with anti-human IgG Fc capture (AHC) biosensors using Octet QKe system instrument from Fortebio. For the assay, each of the humanized antibodies and control antibody Sacituzumab was diluted to 4 μg/ml in PBS, and was allowed to flow through the surface of an AHC biosensor (Cat.: 18-0015, PALL) for 120 s. Recombinant human Trop-2-his protein (ACCESSION NO.: NP_002344.2, AA 1-274) was used as a mobile phase, and its concentration was 60 nM. The binding time was 100 s and the dissociation time was 300 s. When the assay was finished, data from which the response values of blank control had been deducted were fitted to a 1:1 Langmuir binding model using software, and then kinetic constants for antigen-antibody binding were calculated.\nAffinities of the antibodies obtained from the combinations of mutants of murine antibody 23-12, chimeric antibody ch4-3 and control antibody Sacituzumab to recombinant human Trop-2-his protein were determined by ForteBio (Table 8)."}, "[3]": {"target": "T2, human Trop-2 on the surface of cells (CHO/Trop-2 cells; BxPC-3 cells; NCI-N87 cells) (human, UniProt P09758 27-323)", "T2 sequence (looked up)": "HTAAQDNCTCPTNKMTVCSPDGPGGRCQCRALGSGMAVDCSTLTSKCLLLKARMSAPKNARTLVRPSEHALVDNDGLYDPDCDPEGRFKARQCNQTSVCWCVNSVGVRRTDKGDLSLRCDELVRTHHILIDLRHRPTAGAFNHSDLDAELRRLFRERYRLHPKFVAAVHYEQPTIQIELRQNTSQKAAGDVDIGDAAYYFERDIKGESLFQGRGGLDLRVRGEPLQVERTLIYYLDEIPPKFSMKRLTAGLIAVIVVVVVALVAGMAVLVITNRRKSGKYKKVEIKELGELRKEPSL", "assay": "cell-based or functional assay"}, "[4]": {"target": "T2, human Trop-2 on the surface of cells …", "assay": "cell-based or functional assay", "remark": "listed apart in the source"}, "[5]": {"target": "T2, human Trop-2 on the surface of cells …", "assay": "cell-based or functional assay", "remark": "listed apart in the source"}, "[6]": {"target": "T2, human Trop-2 on the surface of cells …", "assay": "FACS, CHO/Trop-2 cells", "method": "Suspensions of CHO cells recombinantly expressing human Trop-2 (CHO/Trop-2 cells) were incubated with chimeric antibodies ch3-11, ch4-3, ch17-1, ch11-4, and ch23-12 (dilutions at concentrations of 30 μg/ml and 10 μg/ml, and serial dilutions of 9 concentrations obtained through 3-fold serially diluting a solution with an initial concentration of 5 μg/ml, 11 concentrations in total) for 30 min at 37° C. Controls as follows were set: (1) Positive Control (PC): control antibody Sacituzumab; (2) Negative Control (NC): IgG1 isotype control antibody NC-IgG1. The cells were washed 3 times with PBS, and 1:100 dilution of goat anti-human IgG-FITC (Cat.: F9512, Sigma) was added into the cell which then were incubated for 30 min. Then the cells were washed 3 times with PBS again, and the Mean Fluorescence Intensity (MFI) of the cells was measured by a flow cytometer (model B49007AD, SNAW31211, BECKMAN COULTER) to detect binding ability of the chimeric antibodies to human Trop-2 on the surface of CHO cells."}, "[7]": {"target": "T1, recombinant human Trop-2-his protein …", "assay": "BLI, naked antibody on AHC sensor, Trop-2-his 60 nM, 300 s binding", "method": "(§1) Affinities of the antibodies were determined by an assay including capturing Fc fragments of the antibodies with anti-human IgG Fc capture (AHC) biosensors using Octet QKe system instrument from Fortebio.\n(§2) For the assay, SN38-labeled antibodies prepared as described above: h23-12-SN38, ch4-3-SN38, ch11-4-SN38, and positive control antibody Sacituzumab-SN38, as well as naked antibodies h23-12, ch4-3, ch11-4, and positive control antibody Sacituzumab were diluted to 4 μg/ml with PBS and allowed to flow through the surface of an AHC biosensor (Cat.: 18-0015, PALL) for 120 s. Recombinant human Trop-2-his protein (ACCESSION NO.: NP_002344.2, AA 1-274) was used as a mobile phase, and its concentration was 60 nM. The binding time was 300 s and the dissociation time was 300 s. When the assay was finished, data from which the response value of blank control had been deducted were fitted to a 1:1 Langmuir binding model using software, and then kinetic constants for antigen-antibody binding were calculated."}, "[8]": {"target": "T1, recombinant human Trop-2-his protein …", "assay": "BLI, SN38-labeled antibody on AHC sensor, Trop-2-his 60 nM, 300 s binding", "method": "as §1, §2"}, "[9]": {"target": "T2, human Trop-2 on the surface of cells …", "assay": "cell-based or functional assay", "remark": "listed apart in the source"}}}
{"binder": "B1", "values": [{"measurement": "EC50", "setting": "[1]", "value": 320, "unit": "pM"}, {"measurement": "Kd", "setting": "[2]", "value": 300, "unit": "pM"}, {"measurement": "Internalization percentage, 1 h, BXPC-3 cells, FACS", "setting": "[3]", "value": 30.7, "unit": "%"}, {"measurement": "Internalization percentage, 1 h, NCI-N87 cells, FACS", "setting": "[4]", "value": 50.2, "unit": "%"}, {"measurement": "Internalization percentage (%), 1 h, BxPC-3 cells, FACS", "setting": "[5]", "value": 17.1, "unit": "%"}, {"measurement": "Internalization percentage (%), 3 h, BxPC-3 cells, FACS", "setting": "[5]", "value": 23.1, "unit": "%"}, {"measurement": "Internalization percentage (%), 5 h, BxPC-3 cells, FACS", "setting": "[5]", "value": 28.1, "unit": "%"}, {"measurement": "EC50", "setting": "[6]", "value": 3330, "unit": "pM"}, {"measurement": "Kd", "setting": "[7]", "value": 323, "unit": "pM"}]}
{"binder": "B2", "values": [{"measurement": "Kd", "setting": "[8]", "value": 177, "unit": "pM"}, {"measurement": "Internalization percentage, 1 h, BXPC-3 cells, FACS", "setting": "[3]", "value": 57.7, "unit": "%"}, {"measurement": "Internalization percentage, 1 h, NCI-N87 cells, FACS", "setting": "[4]", "value": 64.6, "unit": "%"}, {"measurement": "IC50 (µg/ml), inhibitory activity of anti-Trop-2 ADCs on cell growth, BxPC-3 cells", "setting": "[9]", "value": 3.3, "unit": "µg/mL"}]}
{"binder": "B3", "values": [{"measurement": "Kd", "setting": "[8]", "value": 431, "unit": "pM"}, {"measurement": "Internalization percentage, 1 h, BXPC-3 cells, FACS", "setting": "[3]", "value": 32.7, "unit": "%"}, {"measurement": "Internalization percentage, 1 h, NCI-N87 cells, FACS", "setting": "[4]", "value": 47.5, "unit": "%"}, {"measurement": "IC50 (µg/ml), inhibitory activity of anti-Trop-2 ADCs on cell growth, BxPC-3 cells", "setting": "[9]", "value": 4.31, "unit": "µg/mL"}]}
{"binder": "B4", "values": [{"measurement": "Kd", "setting": "[8]", "value": 73.4, "unit": "pM"}, {"measurement": "Internalization percentage, 1 h, BXPC-3 cells, FACS", "setting": "[3]", "value": 51.1, "unit": "%"}, {"measurement": "IC50 (µg/ml), inhibitory activity of anti-Trop-2 ADCs on cell growth, BxPC-3 cells", "setting": "[9]", "value": 2.88, "unit": "µg/mL"}]}
{"binder": "B5", "values": [{"measurement": "Kd", "setting": "[8]", "value": 441, "unit": "pM"}, {"measurement": "Internalization percentage, 1 h, BXPC-3 cells, FACS", "setting": "[3]", "value": 20.1, "unit": "%"}, {"measurement": "Internalization percentage, 1 h, NCI-N87 cells, FACS", "setting": "[4]", "value": 51.1, "unit": "%"}, {"measurement": "IC50 (µg/ml), inhibitory activity of anti-Trop-2 ADCs on cell growth, BxPC-3 cells", "setting": "[9]", "value": 1.41, "unit": "µg/mL"}]}
